Patent US20230416330A1, “Optimized GIP Peptide Analogues” (Antag Therapeutics ApS, priority 2019, published 2023)
Starred links: 1 amine or outer side, 2 acyl side, 3 side chain; linkers in the order of their positions; H or OH if unused. Non-standard residues stand in square brackets, D forms with d. Groups on a side chain read outwards from the residue. No end group written: not given here. *: point of attachment. C18 diacid = O=C(O)CCCCCCCCCCCCCCCCC(=O)*; C16 diacid = O=C(O)CCCCCCCCCCCCCCC(=O)*; γGlu = O=C(O)[C@H](CCC(=O)[*:2])N[*:1]; Glutaryl = O=C(CCCC(=O)[*:2])[*:1]; Nle = CCCC[C@H](N)C(=O)O; AEEA = NCCOCCOCC(=O)O; Aib = CC(C)(N)C(=O)O

B1: AT693 (peptide)
peptide: EGTFISEYSIALEKIK([AEEA-AEEA-γGlu-C18 diacid])QQEFVEWLLAQKPSSGAPPPS-OH
modifications: N-terminus assumed
SMILES: CC[C@H](C)[C@H](NC(=O)[C@H](CO)NC(=O)[C@H](Cc1ccc(O)cc1)NC(=O)[C@H](CCC(=O)O)NC(=O)[C@H](CO)NC(=O)[C@@H](NC(=O)[C@H](Cc1ccccc1)NC(=O)[C@@H](NC(=O)CNC(=O)[C@@H](N)CCC(=O)O)[C@@H](C)O)[C@@H](C)CC)C(=O)N[C@@H](C)C(=O)N[C@@H](CC(C)C)C(=O)N[C@@H](CCC(=O)O)C(=O)N[C@@H](CCCCN)C(=O)N[C@H](C(=O)N[C@@H](CCCCNC(=O)COCCOCCNC(=O)COCCOCCNC(=O)CC[C@H](NC(=O)CCCCCCCCCCCCCCCCC(=O)O)C(=O)O)C(=O)N[C@@H](CCC(N)=O)C(=O)N[C@@H](CCC(N)=O)C(=O)N[C@@H](CCC(=O)O)C(=O)N[C@@H](Cc1ccccc1)C(=O)N[C@H](C(=O)N[C@@H](CCC(=O)O)C(=O)N[C@@H](Cc1c[nH]c2ccccc12)C(=O)N[C@@H](CC(C)C)C(=O)N[C@@H](CC(C)C)C(=O)N[C@@H](C)C(=O)N[C@@H](CCC(N)=O)C(=O)N[C@@H](CCCCN)C(=O)N1CCC[C@H]1C(=O)N[C@@H](CO)C(=O)N[C@@H](CO)C(=O)NCC(=O)N[C@@H](C)C(=O)N1CCC[C@H]1C(=O)N1CCC[C@H]1C(=O)N1CCC[C@H]1C(=O)N[C@@H](CO)C(=O)O)C(C)C)[C@@H](C)CC
B2: AT677 (peptide)
peptide: Glutaryl-GTFISDYSIAMDKIK(C16 diacid)QQDFVNWLLAQKPSSGAPPPS-OH
SMILES: CC[C@H](C)[C@H](NC(=O)[C@H](CO)NC(=O)[C@H](Cc1ccc(O)cc1)NC(=O)[C@H](CC(=O)O)NC(=O)[C@H](CO)NC(=O)[C@@H](NC(=O)[C@H](Cc1ccccc1)NC(=O)[C@@H](NC(=O)CNC(=O)CCCC(=O)O)[C@@H](C)O)[C@@H](C)CC)C(=O)N[C@@H](C)C(=O)N[C@@H](CCSC)C(=O)N[C@@H](CC(=O)O)C(=O)N[C@@H](CCCCN)C(=O)N[C@H](C(=O)N[C@@H](CCCCNC(=O)CCCCCCCCCCCCCCC(=O)O)C(=O)N[C@@H](CCC(N)=O)C(=O)N[C@@H](CCC(N)=O)C(=O)N[C@@H](CC(=O)O)C(=O)N[C@@H](Cc1ccccc1)C(=O)N[C@H](C(=O)N[C@@H](CC(N)=O)C(=O)N[C@@H](Cc1c[nH]c2ccccc12)C(=O)N[C@@H](CC(C)C)C(=O)N[C@@H](CC(C)C)C(=O)N[C@@H](C)C(=O)N[C@@H](CCC(N)=O)C(=O)N[C@@H](CCCCN)C(=O)N1CCC[C@H]1C(=O)N[C@@H](CO)C(=O)N[C@@H](CO)C(=O)NCC(=O)N[C@@H](C)C(=O)N1CCC[C@H]1C(=O)N1CCC[C@H]1C(=O)N1CCC[C@H]1C(=O)N[C@@H](CO)C(=O)O)C(C)C)[C@@H](C)CC
B3: AT673 (peptide)
peptide: EGTFISEYSI[Aib]LEKIK(C16 diacid)QQEFVEWLLAQKPSSGAPPPS-OH
modifications: N-terminus assumed
SMILES: CC[C@H](C)[C@H](NC(=O)[C@H](CCCCN)NC(=O)[C@H](CCC(=O)O)NC(=O)[C@H](CC(C)C)NC(=O)C(C)(C)NC(=O)[C@@H](NC(=O)[C@H](CO)NC(=O)[C@H](Cc1ccc(O)cc1)NC(=O)[C@H](CCC(=O)O)NC(=O)[C@H](CO)NC(=O)[C@@H](NC(=O)[C@H](Cc1ccccc1)NC(=O)[C@@H](NC(=O)CNC(=O)[C@@H](N)CCC(=O)O)[C@@H](C)O)[C@@H](C)CC)[C@@H](C)CC)C(=O)N[C@@H](CCCCNC(=O)CCCCCCCCCCCCCCC(=O)O)C(=O)N[C@@H](CCC(N)=O)C(=O)N[C@@H](CCC(N)=O)C(=O)N[C@@H](CCC(=O)O)C(=O)N[C@@H](Cc1ccccc1)C(=O)N[C@H](C(=O)N[C@@H](CCC(=O)O)C(=O)N[C@@H](Cc1c[nH]c2ccccc12)C(=O)N[C@@H](CC(C)C)C(=O)N[C@@H](CC(C)C)C(=O)N[C@@H](C)C(=O)N[C@@H](CCC(N)=O)C(=O)N[C@@H](CCCCN)C(=O)N1CCC[C@H]1C(=O)N[C@@H](CO)C(=O)N[C@@H](CO)C(=O)NCC(=O)N[C@@H](C)C(=O)N1CCC[C@H]1C(=O)N1CCC[C@H]1C(=O)N1CCC[C@H]1C(=O)N[C@@H](CO)C(=O)O)C(C)C
B4: AT674 (peptide)
peptide: EGTFISEYSI[Aib][Nle]EKIK(C16 diacid)QQEFVEWLLAQKPSSGAPPPS-OH
modifications: N-terminus assumed
SMILES: CCCC[C@H](NC(=O)C(C)(C)NC(=O)[C@@H](NC(=O)[C@H](CO)NC(=O)[C@H](Cc1ccc(O)cc1)NC(=O)[C@H](CCC(=O)O)NC(=O)[C@H](CO)NC(=O)[C@@H](NC(=O)[C@H](Cc1ccccc1)NC(=O)[C@@H](NC(=O)CNC(=O)[C@@H](N)CCC(=O)O)[C@@H](C)O)[C@@H](C)CC)[C@@H](C)CC)C(=O)N[C@@H](CCC(=O)O)C(=O)N[C@@H](CCCCN)C(=O)N[C@H](C(=O)N[C@@H](CCCCNC(=O)CCCCCCCCCCCCCCC(=O)O)C(=O)N[C@@H](CCC(N)=O)C(=O)N[C@@H](CCC(N)=O)C(=O)N[C@@H](CCC(=O)O)C(=O)N[C@@H](Cc1ccccc1)C(=O)N[C@H](C(=O)N[C@@H](CCC(=O)O)C(=O)N[C@@H](Cc1c[nH]c2ccccc12)C(=O)N[C@@H](CC(C)C)C(=O)N[C@@H](CC(C)C)C(=O)N[C@@H](C)C(=O)N[C@@H](CCC(N)=O)C(=O)N[C@@H](CCCCN)C(=O)N1CCC[C@H]1C(=O)N[C@@H](CO)C(=O)N[C@@H](CO)C(=O)NCC(=O)N[C@@H](C)C(=O)N1CCC[C@H]1C(=O)N1CCC[C@H]1C(=O)N1CCC[C@H]1C(=O)N[C@@H](CO)C(=O)O)C(C)C)[C@@H](C)CC
B5: AT682 (peptide)
peptide: EGTFISDYSIALDKIK([AEEA-AEEA-γGlu-C18 diacid])QQDFVEWLLAQKPSSGAPPPS-OH
modifications: N-terminus assumed
SMILES: CC[C@H](C)[C@H](NC(=O)[C@H](CO)NC(=O)[C@H](Cc1ccc(O)cc1)NC(=O)[C@H](CC(=O)O)NC(=O)[C@H](CO)NC(=O)[C@@H](NC(=O)[C@H](Cc1ccccc1)NC(=O)[C@@H](NC(=O)CNC(=O)[C@@H](N)CCC(=O)O)[C@@H](C)O)[C@@H](C)CC)C(=O)N[C@@H](C)C(=O)N[C@@H](CC(C)C)C(=O)N[C@@H](CC(=O)O)C(=O)N[C@@H](CCCCN)C(=O)N[C@H](C(=O)N[C@@H](CCCCNC(=O)COCCOCCNC(=O)COCCOCCNC(=O)CC[C@H](NC(=O)CCCCCCCCCCCCCCCCC(=O)O)C(=O)O)C(=O)N[C@@H](CCC(N)=O)C(=O)N[C@@H](CCC(N)=O)C(=O)N[C@@H](CC(=O)O)C(=O)N[C@@H](Cc1ccccc1)C(=O)N[C@H](C(=O)N[C@@H](CCC(=O)O)C(=O)N[C@@H](Cc1c[nH]c2ccccc12)C(=O)N[C@@H](CC(C)C)C(=O)N[C@@H](CC(C)C)C(=O)N[C@@H](C)C(=O)N[C@@H](CCC(N)=O)C(=O)N[C@@H](CCCCN)C(=O)N1CCC[C@H]1C(=O)N[C@@H](CO)C(=O)N[C@@H](CO)C(=O)NCC(=O)N[C@@H](C)C(=O)N1CCC[C@H]1C(=O)N1CCC[C@H]1C(=O)N1CCC[C@H]1C(=O)N[C@@H](CO)C(=O)O)C(C)C)[C@@H](C)CC

Target: T1, human GIP receptor (human, UniProt P48546 22-466)
T1 sequence (looked up): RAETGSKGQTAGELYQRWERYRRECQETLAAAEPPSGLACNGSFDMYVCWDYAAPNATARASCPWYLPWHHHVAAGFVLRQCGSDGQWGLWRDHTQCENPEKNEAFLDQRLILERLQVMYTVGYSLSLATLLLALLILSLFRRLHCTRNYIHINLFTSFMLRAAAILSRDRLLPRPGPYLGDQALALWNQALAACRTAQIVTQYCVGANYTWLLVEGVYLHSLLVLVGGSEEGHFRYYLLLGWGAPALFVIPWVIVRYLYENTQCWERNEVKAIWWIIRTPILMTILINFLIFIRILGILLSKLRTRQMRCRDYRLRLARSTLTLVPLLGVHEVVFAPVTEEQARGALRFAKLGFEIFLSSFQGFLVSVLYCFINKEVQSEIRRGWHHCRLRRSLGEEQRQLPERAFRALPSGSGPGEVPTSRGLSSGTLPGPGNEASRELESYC
Assay: cell-based or functional assay

Binder | cAMP antagonism % inhib (CisBio assay) [%] | cAMP antagonism nM (IC50, CisBio assay) [nM] | cAMP antagonism pIC50 (CisBio assay)
B1 | 96 | 1.26 | 8.9
B2 | 93 | 0.447 | 9.4
B3 | 94 | 0.136 | 9.9
B4 | 93 | 0.447 | 9.4
EGTFISDYSI[Aib]LDKIK([AEEA-AEEA-γGlu-C18 diacid])QQDFVEWLLAQKPSSGAPPPS-OH [AT685] | 83 | 2 | 8.7
EGTFISDYSI[Aib][Nle]DKIK([AEEA-AEEA-γGlu-C18 diacid])QQDFVEWLLAQKPSSGAPPPS-OH [AT686] | 82 | 3.42 | 8.5
B5 | 89 | 13.6 | 7.9
EGTFISDYSIA[Nle]DKIK([AEEA-AEEA-γGlu-C18 diacid])QQDFVEWLLAQKPSSGAPPPS-OH [AT683] | 93 | 15.9 | 7.8
